Assay results as given in publication PMC7491322, “Molecular basis for the distinct cellular functions of the Lsm1–7 and Lsm2–8 complexes” (RNA, 2020).
Blank lines part the entries; values can stand above or below the binder they belong to.

B3: S. pombe Lsm3 (natural protein)
chain: not shown
notes: Lsm3, S. pombe, codon-optimised open reading frame; TEV site between GST and Lsm3; The complex was held through the GST on Lsm3 on glutathione agarose during the purification; TEV protease was added to the eluate before the later steps and the crystallisation; source: E. coli BL21(DE3) STAR pLysS, coexpressed with the other Lsm proteins, purified as part of the Lsm2–8 or Lsm1–7 complex; not …

Assays:
Settings in all cases: both partners purified
[1] = molecular target: B3; assay: crystal structure; Lsm1_(Δ56C)–7 ring with UUUUUA (1.8 Å) or AUUUUG (2.1 Å); 10% PEG 8000, 20% ethylene glycol, HEPES/MOPS
[2] = molecular target: T1, S. pombe Lsm5 (S. pombe, UniProt O42978 2-80); assay: as above
T1 construct: Lsm5, S. pombe, codon-optimised open reading frame, no purification tag; amino-terminal methionine missing by ESI-MS; source: E. coli BL21(DE3) STAR pLysS, coexpressed with the other Lsm proteins, purified as part of the Lsm2–8 or Lsm1–7 complex

[3] = molecular target: T2, S. pombe Lsm4 (S. pombe, UniProt O14352 1-121); assay: crystal structure; Lsm2–8 ring with UUUUU-3′-OH (1.9 Å) or UUUUU>p (2.3 Å); hanging drop, 16°C, 100–200 mM KCl, 50–100 mM HEPES pH 7.4, 35% pentaerythritol propoxylate
T2 construct: Lsm4, S. pombe, codon-optimised open reading frame; noncleavable tag; source: E. coli BL21(DE3) STAR pLysS, coexpressed with the other Lsm proteins, purified as part of the Lsm2–8 or Lsm1–7 complex; not shown: Strep-II, C-terminal, kept
T2 sequence (looked up): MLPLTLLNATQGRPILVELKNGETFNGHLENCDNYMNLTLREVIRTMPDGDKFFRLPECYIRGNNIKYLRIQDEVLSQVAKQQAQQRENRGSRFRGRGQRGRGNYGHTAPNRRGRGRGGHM

[4] = molecular target: B3; assay: as above
[5] = molecular target: T3, S. pombe Lsm2 (S. pombe, UniProt O94408 1-96); assay: as above
T3 construct: Lsm2, S. pombe, codon-optimised open reading frame, no purification tag; source: E. coli BL21(DE3) STAR pLysS, coexpressed with the other Lsm proteins, purified as part of the Lsm2–8 or Lsm1–7 complex
T3 sequence (looked up): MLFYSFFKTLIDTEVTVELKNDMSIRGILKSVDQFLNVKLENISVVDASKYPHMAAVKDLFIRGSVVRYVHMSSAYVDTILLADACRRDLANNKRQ

[6] = molecular target: T3, S. pombe Lsm2; assay: crystal structure; Lsm1_(Δ56C)–7 ring with UUUUUA (1.8 Å) or AUUUUG (2.1 Å); 10% PEG 8000, 20% ethylene glycol, HEPES/MOPS

T1 sequence (O42978 2-80): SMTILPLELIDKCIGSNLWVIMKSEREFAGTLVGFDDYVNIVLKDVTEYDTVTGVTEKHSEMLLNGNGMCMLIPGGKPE

- binding result [1]: binds
- binding result [2]: binds
B1: S. pombe Lsm6 (natural protein, UniProt Q9UUI1 1-75, looked up)
chain: MDSSPNEFLNKVIGKKVLIRLSSGVDYKGILSCLDGYMNLALERTEEYVNGKKTNVYGDAFIRGNNVLYVSALDD
notes: Lsm6, S. pombe, codon-optimised open reading frame; source: E. coli BL21(DE3) STAR pLysS, coexpressed with the other Lsm proteins, purified as part of the Lsm2–8 or Lsm1–7 complex; not shown: MBP, N-terminal, cleaved

- binding result [3]: binds
- binding result [4]: binds
- binding result [5]: binds
B2: S. pombe Lsm8 (natural protein, UniProt O74483 2-94, looked up)
chain: SLADFMEQRVQVITNDGRVVLGSLKGFDHTTNLILSDSFERIISMDQDMETIPLGVYLLRGENVAMVGLVNEELDSEIEWTKIRGEAIPDVVH
notes: Lsm8, S. pombe, codon-optimised open reading frame, no purification tag; amino-terminal methionine missing by ESI-MS; source: E. coli BL21(DE3) STAR pLysS, coexpressed with the other Lsm proteins, purified as part of the Lsm2–8 complex

Binder: B3
- binding result [6]: binds
